These results are taken from the nanobody polyreactivity screen of Harvey et al. (2022).

This series can be described thus: yeast display, Sf9 membrane polyspecificity reagent, FACS + sequencing; frameworks hold sequencing errors. The essentials:
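Galactose induction of a Saccharomyces cerevisiae BJ5465 synthetic nanobody display library ran 36–48 hours. The cells were then stained for 1 hour at 4 °C with 10% biotinylated, detergent-solubilized Sf9 membrane reagent, pulled down on streptavidin microbeads and FACS-sorted into low and high (top ~1%) gates on expression and reagent-binding fluorescence. Labels for polyreactivity follow the gate of origin.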
In the case of “QVQLVESGGGLVQAGGSLRLSCAASGRIFSRKTMGWYRQAPGKEREFVAAISQSGGRTYYADSVKGRFTISRDNAKNTVYLQMNSLKPEDTAVYYCNAQFARSSGFNYWGQGTQVTVSS”, the “polyreactivity (PSR sort gate)” value is recorded as “high polyreactivity”.
With “QVQLVESGGGLVQAGGSLRLSCAASGRIFSRNAMGWYIQAPGKERELVAAISRSGTSTYYADSVKGRFTISRDNAKYTVYLQMNSLKPEDTAVYYCAADYPAVISIRRYDYWGQGTQVTVSS”, the “polyreactivity (PSR sort gate)” value is “low polyreactivity”.
To “QVQLVESGGGLVQAGGSLRLSCAASGRIFSRNAMGWYRQAPGKERELVAAISRSGTSTYYADSVKGRFTISRDNAKNTVYLQMNSLKPEDTAVYYCAADYPAVISIRRYDYWGQGTQVTVSS” belongs “low polyreactivity”; to “QVQLVESGGGLVQAGGSLRLSCAASGRIFSRNAMGWYRQAPGKERELVAAITSGGSTYYADSVKGRFTISRDNAKNTVYLQMNSLKPEDTAVYYCAKRLTYYSWYHLYDYWGQGTQVTVSS”, “high polyreactivity”.
To “QVQLVESGGGLVQAGGSLRLSCAASGRIFSRYAMGWYRQAPGKERELVAAITQSGTSTYYADSVKGRFTISRDNAKNTVYLQMNSLKPEDTAVYYCAAAKHSWRPSYYWGGYWGQGTQVTVSS” belongs “low polyreactivity”.
Next, “QVQLVESGGGLVQAGGSLRLSCAASGRIFSRYAMGWYRQAPGKERELVAAITRGGSTYADSVKGRFTISRDNAKNTVYLQMNSLKPEDTAVYYCATPIYSSYYRYSSGYGYDYWGQGTQVTVSS”: “high polyreactivity”.
In the case of “QVQLVESGGGLVQAGGSLRLSCAASGRIFSRYAMGWYRQAPGKERELVATITRRGGSTSYADSVKGRFTISRDNAKNTVYLHMNSLKPEDTAVYYCAAQSFYGIYYGQQDYDYWGQGTQVTVSS”, the “polyreactivity (PSR sort gate)” value was “high polyreactivity”.
As for “QVQLVESGGGLVQAGGSLRLSCAASGRIFSRYAMGWYTQAPGKERELVAAITQSGTSTYDADSVKGRFTISRDNAKNTVYLQMNSLKPEDTAVYFCNAYRQYRYDYWGQGTQVTVSS”, the “polyreactivity (PSR sort gate)” value is listed as “low polyreactivity”.
As for “QVQLVESGGGLVQAGGSLRLSCAASGRIFSRYGMGWYRQAPGKERELVAGISSSGGSTYYADSVKGRFTISRDNAKNTVYLQMNSLKPEDTAVYYCAADDGFYGPDLDYRGQGTQVTVSS”, the “polyreactivity (PSR sort gate)” value is “low polyreactivity”.
To “QVQLVESGGGLVQAGGSLRLSCAASGRIFSRYVMGWYRQAPGKERELVAAISGRATSTYYADSVKGRFTISRDNAKNTVYLQMNSLKPEDTAVYYCATGYKTYAVTLYDYWGQGTQVTVSS” belongs “high polyreactivity”; to “QVQLVESGGGLVQAGGSLRLSCAASGRIFSSNAMGWYRKAPGKEREFVAAINESGGITFYADSVKGRFTISRDNAKNTVYLQLNSLIPEDTAVYYCAKRDYSPWPADGYPYDYDYWGQGTQVTVSS”, “low polyreactivity”; to “QVQLVESGGGLVQAGGSLRLSCAASGRIFSSYAKGWYRQAPGKERELVAAISRGGGRTYYADSVKGRFTISRDNAKNTVYLQMNSLKPEDTAVYYCATVGRSAAYAFDYWGQGTQVTVSS”, “high polyreactivity”.
To “QVQLVESGGGLVQAGGSLRLSCAASGRIFSSYAMGWYRQAPGKERELVAAISSRGGSTYYADSVKGRFTIARDNAKNTVYLQMNSLKPEDTAVYYCARVKYSGVVYKYDYWGQGTQVTVSS” belongs “high polyreactivity”.
Next, “QVQLVESGGGLVQAGGSLRLSCAASGRIFSSYAMGWYRQAPGKERELVAAITRGGSTYYADSVKGRFTISRDNAKNTVYLQMNSLKPEDTAVYYCNAVGFYAANTFDYWGQGTQVTVSS”: “high polyreactivity”; “QVQLVESGGGLVQAGGSLRLSCAASGRIFSSYVMGWYRQAPGKERELVAAIRWSGGSTYYADSVKGRFTISRDNAKNTVYLQMNSLKPEDTAVYYCAARHVLYGYYLYDYWGQGTQVTVSS”: “high polyreactivity”.
“QVQLVESGGGLVQAGGSLRLSCAASGRIFSTNAMGWYRQAPGKEWELVAAITRGVSTKYADSVKGRFTISRDNAKNTVYLQMNSLKPEDTAVYYCAARVVWGPESDYWGQGTQVTVSS”: the “polyreactivity (PSR sort gate)” value is recorded as “low polyreactivity”.
Next, “QVQLVESGGGLVQAGGSLRLSCAASGRIFSTYAMGWYRQAPGKERELVAAINKIGGSTYYADSVKGRFTISRDNAKNTDYLQMNSLKPEDSAVYYCAADAPYYPVRRYYYWGQGTQVTVSS”: “low polyreactivity”; “QVQLVESGGGLVQAGGSLRLSCAASGRIFSVNAMGWYRQAPGTEREFVAAISWSGSSTYYADSVKGRFTSSRDNAKITVYLQMNSLKPEDTAVYYCNADIDFGTREVYYWGQGTQVTVSS”: “low polyreactivity”; “QVQLVESGGGLVQAGGSLRLSCAASGRIFSVYAMGWYRQAPGKEREFVASISWRGGRTYYADSVKGRFTISRDNAKNTFYLQMNSLKPEDTAVYYCAAVSYPAVYGFDYWGQGTQVTVSS”: “high polyreactivity”.
To “QVQLVESGGGLVQAGGSLRLSCAASGRIFSVYGMGWYRQAPGKERELVAAMSSSAGSTNYADSVKGRFTISRDNAKNTVYLQMISLKPEDTAVYYCAAYYRRVVYYPTAYYIRKYDYWGQGSQVTVSS” belongs “high polyreactivity”.
“QVQLVESGGGLVQAGGSLRLSCAASGRIFSWNTMGWYRQAPGKERELVAAISSSDGSTYYADSVKGRFTISRDNAKNTVYLQMNSVKPEDTAVYYCNKVVSRWNQRWRYSEGNYWGQGTQVTVSS”: the “polyreactivity (PSR sort gate)” value was “high polyreactivity”.
To “QVQLVESGGGLVQAGGSLRLSCAASGRIFSWYAMGWYRQAPGKERELVAAISASGSSTYYADSVKGRFTISRDNAKNTVYLQMNSLKPEDTAVYYCNTVSAYYARRSEGYDYWGQGTQVTVSS” belongs “high polyreactivity”.
To “QVQLVESGGGLVQAGGSLRLSCAASGRIFSWYAMGWYRQAPGKERELVAAITVRGSTYYADSVKGRFTISRDNAKNTVYLQMNSLKPEDTAVYYCAAKSSRYAYDYWGQGTQVTVSS” belongs “low polyreactivity”; to “QVQLVESGGGLVQAGGSLRLSCAASGRIFSWYAMGWYRQAPGKERELVARITTRGGNTYYADSVKGRFTFSRDNAKNTVYLQMNSLKPEVTAVYYCAARHPYPIYDYWGQGTQVSVSS”, “low polyreactivity”; to “QVQLVESGGGLVQAGGSLRLSCAASGRIFSYFAMGWYRQAPGKEWELVAASSGNGGSTYYADSVKGRFTISRDNAKNTVYLHMNSLKPEDTAVYYCAADWRSSDWAYLYPYSYDDWGQGTQVTVSS”, “low polyreactivity”.
Next, “QVQLVESGGGLVQAGGSLRLSCAASGRIFSYNAMGWYRQAPGKERELVAAISSDGSTYYADSVKGRFTISRDNAKNTVYLQMNSLKPVDTAVYYCAARQVVWFDYTTAQVGSYKVNYWGQGTQVTVSS”: “low polyreactivity”; “QVQLVESGGGLVQAGGSLRLSCAASGRIFSYNAMGWYRQAPGKERELVAAISTGTSTYYADSVKGRFTISGDNAKNTVYLQMNSLKPEDTAVYYCAVDAYYWYQWYDYWGQGTQVTVSS”: “low polyreactivity”.
As for “QVQLVESGGGLVQAGGSLRLSCAASGRIFSYNAMGWYRQAPGKERELVAAITFSGGGTYYADSVKGRFTISRDNAKYTVYLQMNSLKPEDTAVYYCNKVSYGYSTYGYWGQGTQVTVSS”, the “polyreactivity (PSR sort gate)” value is listed as “low polyreactivity”.
To “QVQLVESGGGLVQAGGSLRLSCAASGRIFSYNAMGWYRQAPGKERELVAPINTSGGSTYYADSVKGRFTISRDNAKNTVYLHMNSLKPEDTAVYYCNATLPVYWPYYYYQGGDDDWGQGTQVTVSS” belongs “low polyreactivity”.
To “QVQLVESGGGLVQAGGSLRLSCAASGRIFSYNAMGWYRQAPGKERELVARINWSSGRTYYADSVKGRFTISRDNAKNTVYLQMNSLKPEDTAVYYCNRVSRGPVGGYYWGQGTQVTVSS” belongs “high polyreactivity”.
